Paper PMC3433420, “Comprehensive Binary Interaction Mapping of SH2 Domains via Fluorescence Polarization Reveals Novel Functional Diversification of ErbB Receptors” (PLoS ONE, 2012)
Non-standard residues stand in square brackets, D forms with d. No end group written: not given here. pY = N[C@@H](Cc1ccc(OP(=O)(O)O)cc1)C(=O)O; rhodamine = not defined here

What was measured:
GRB2 SH2 domain = biological target: T1, GRB2 SH2 domain (human, UniProt P62993 60-152); assay: fluorescence polarisation; saturation binding in solution: rhodamine peptide fixed at 10 nM, protein titrated 0.002-10 uM, 20 min at room temperature; assay buffer 20 mM HEPES, 100 mM KCl, 0.1% Tween-20, 5 mM DTT, pH 7.8; apparent KD; conditions: both partners purified
T1 construct: GRB2, human; source: bacterial expression, purified

SRC SH2 domain = biological target: T2, SRC SH2 domain (human, UniProt P12931-1 151-248); assay: fluorescence polarisation; competition: rhodamine peptide 10 nM, protein at four times its KD, unlabeled competitor peptide in 11 serial 1:3 dilutions; Ki from IC50, one-site model; conditions: both partners purified
T2 construct: SRC, human; also called c-Src; source: bacterial expression, purified

T1 sequence (P62993 60-152): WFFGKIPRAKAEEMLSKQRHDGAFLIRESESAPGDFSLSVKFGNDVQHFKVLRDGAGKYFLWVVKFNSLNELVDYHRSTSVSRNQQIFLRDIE

| Binder | Kd (GRB2 SH2 domain) [nM] | Ki (SRC SH2 domain) [nM] |
| --- | --- | --- |
| rhodamine-NEPL[pY]LNTFANTD (reading uncertain, human ErbB4 around Tyr1208; the labelled form stood in the FP saturation assay behind Ki (exp FP); source: synthetic peptide) [ErbB4pY1208 phosphopeptide, rhodamine-labelled] | 1460 | – |
| EELG[pY]EYMDVGSD (human ErbB3 around Tyr1222; source: synthetic peptide) [ErbB3pY1222 phosphopeptide, unlabeled competitor] | – | 2360 |
